± gives the standard error. Fewer inactive variants are shown than the library holds.
B1: glmS ribozyme (parent)
chain: AUAAAAGCGCCAGAACUACAGAAAUGUAGUUGACGAGGAGGAGGUUUAUCGAAUUUUCGGCGGAUGCCUCCAAA

Variants of: B1
Assay: self-cleavage kobs at 2500 uM GlcN6P; higher = faster cleavage; RNA array
Conditions: with glucosamine-6-phosphate
Summary of the method: (§1)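 In situ transcription by E. coli RNA polymerase produced barcoded ribozyme variants on sequenced MiSeq chips, and a hybridised Cy3 probe tracked them at 37 °C. Glucosamine-6-phosphate was flowed in at 40 μM to 10 mM in HEPES/KCl/Mg(OAc)2 buffer. kcat and KM were taken from weighted Michaelis–Menten fits of kobs values from exponential decay fits.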

Row | Variant | self-cleavage kobs at 2500 uM GlcN6P [s⁻¹]
1 | AUAAAAGCGCCAGAACUACAGAAAUGUAGUUGACGAGGAGGAGGUUUAUCGAAUGUUCGGCGGAUGCCUUGAAA | 7.27e-05 ± 1.7e-05
2 | AUAAAAGCGCCAGAACUACAGAAAUGUAGUUGACGAGGAGGAGGUUUAUCGGAUUUUCGGCAUAUGCCGCCAAA | 0.000139 ± 4.7e-05
3 | AUAAAAGCGCCAGAACUACAGAAAUGUAGUUGACGAGGAGGAGGUUUAUCGAAGUUUCGGUGGAUGCCUUCAAA | 5.89e-05 ± 1.4e-05
4 | AUAAAAGCGCCAGAACUACAGAAAUGUAGUUGACGAGGAGGAGGUUUAUCUAAGUUUCGGUGGAUGCCUCCAAA | < 1e-05
5 | AUAAAAGCGCCAGAACUACAGAAAUGUAGUUGACGAGGAGGAGGUUUAUCAAAUUCUCGGCGGAUGCCUGCAAA | < 1e-05
6 | AUAAAAGCGCCAGAACUACAGAAAUGUAGUUGACGAGGAGGAGGUUUAUCUUAGCUUCGGCGGAUGCCUCCAAA | < 1e-05
7 | AUAAAAGCGCCAGAACUACAGAAAUGUAGUUGACGAGGAGGAGGUUUAUCGUAUUAUGGGCGGAUGCCUCCAAA | < 1e-05
8 | AUAAAAGCGCCAGAACUACAGAAAUGUAGUUGACGAGGAGGAGGUUUAUCGAAUAUUCAGCGGGUGCCUCCAAA | 2.94e-05 ± 1.4e-05
9 | AUAAAAGCGCCAGAACUACAGAAAUGUAGUUGACGAGGAGGAGGUUUAUCGAAUGUUGGUCGGAUGCCUCCAAA | < 1e-05
10 | AUAAAAGCGCCAGAACUACAGAAAUGUAGUUGACGAGGAGGAGGUUUAUCGACUGUUCGGCGGAUACCUCCAAA | 0.00165 ± 0.00032
11 | AUAAAAGCGCCAGAACUACAGAAAUGUAGUUGACGAGGAGGAGGUUUAUCGAAGUUUGGGCGGGUGCCUCUAAA | 5.26e-05 ± 2.3e-05
12 | AUAAAAGCGCCAGAACUACAGAAAUGUAGUUGACGAGGAGGAGGUUUAUCGUAUUUUCGGGGGAUGUCUCCAAA | 8.45e-05 ± 3e-05
13 | AUAAAAGCGCCAGAACUACAGAAAUGUAGUUGACGAGGAGGAGGUUUAUCGAAAUUUCGGCGGAUGAUUCCAAA | 9e-05 ± 2.1e-05
14 | AUAAAAGCGCCAGAACUACAGAAAUGUAGUUGACGAGGAGGAGGUUUAUCGAGUUUUCGGCGGAUGGUUCCAAA | 7.23e-05 ± 2.2e-05
15 | AUAAAAGCGCCAGAACUACAGAAAUGUAGUUGACGAGGAGGAGGUUUAUCGAAUCUUCUGCGGAUGCCUCCAAA | 3.25e-05 ± 1.3e-05
16 | AUAAAAGCGCCAGAACUACAGAAAUGUAGUUGACGAGGAGGAGGUUUAUCGUAAUUUCGGCGGAUGUCUCCAAA | 0.000187 ± 5.3e-05
17 | AUAAAAGCGCCAGAACUACAGAAAUGUAGUUGACGAGGAGGAGGUUUAUCGAAUAUUCGGCGGCUGCCUCUAAA | 7.29e-05 ± 3.2e-05
18 | AUAAAAGCGCCAGAACUACAGAAAUGUAGUUGACGAGGAGGAGGUUUAUCGUAUUUACGGCGGAUGUCUCCAAA | 0.000441 ± 9.6e-05
19 | AUAAAAGCGCCAGAACUACAGAAAUGUAGUUGACGAGGAGGAGGUUUAUCGAAAUUUCGGCGAAUGCCUUCAAA | < 1e-05
20 | AUAAAAGCGCCAGAACUACAGAAAUGUAGUUGACGAGGAGGAGGUUUAUCGAAUAUUCGGCGGAUGUGUACAAA | 0.000233 ± 8.8e-05
21 | AUAAAAGCGCCAGAACUACAGAAAUGUAGUUGACGAGGAGGAGGUUUAUCGAGUUUUCGGUGGAUGCGUCCAAA | 6.94e-05 ± 2.7e-05
22 | AUAAAAGCGCCAGAACUACAGAAAUGUAGUUGACGAGGAGGAGGUUUAUCGGAUUUUCGGCGGGUGCUUCCAAA | 6.71e-05 ± 2.2e-05
23 | AUAAAAGCGCCAGAACUACAGAAAUGUAGUUGACGAGGAGGAGGUUUAUCGAAUUAUGGGCGGAUGUCUCCAAA | 4.09e-05 ± 1.7e-05
24 | AUAAAAGCGCCAGAACUACAGAAAUGUAGUUGACGAGGAGGAGGUUUAUCGAGUUUUCGGCGUAUGCCUCAAAA | < 1e-05
25 | AUAAAAGCGCCAGAACUACAGAAAUGUAGUUGACGAGGAGGAGGUUUAUCUAAUCUUCGGCAGAUCUCUCCAAA | < 1e-05
26 | AUAAAAGCGCCAGAACUACAGAAAUGUAGUUGACGAGGAGGAGGUUUAUCGAAUAAUCGGCGGGUGCCUCCAAA | 0.0035 ± 0.00087
27 | AUAAAAGCGCCAGAACUACAGAAAUGUAGUUGACGAGGAGGAGGUUUAUCGUAUUUUCUGCGGUUGCCUUCAAA | < 1e-05
28 | AUAAAAGCGCCAGAACUACAGAAAUGUAGUUGACGAGGAGGAGGUUUAUCGGAUAUUCGGCGGAUGCCUCCAAA | 0.000757 ± 0.00015
29 | AUAAAAGCGCCAGAACUACAGAAAUGUAGUUGACGAGGAGGAGGUUUAUCGGAGUUUCGGCGGAUGCGUCCAAA | 7.13e-05 ± 2.9e-05
30 | AUAAAAGCGCCAGAACUACAGAAAUGUAGUUGACGAGGAGGAGGUUUAUCUAAUUUUCCGCGGAUUCCUCCAAA | < 1e-05

Variants of: B1
Assay: self-cleavage kobs at 10000 uM GlcN6P; higher = faster cleavage; RNA array
Conditions: with glucosamine-6-phosphate
Summary of the method: as §1

Row | Variant | self-cleavage kobs at 10000 uM GlcN6P [s⁻¹]
31 | AUAAAAGCGCCAGAACUACAGAAAUGUAGUUGACGAGGAGGAGGUUUAUCGAAUGUUCGGCGGAUGCCUUGAAA | 0.000142 ± 3.8e-05
32 | AUAAAAGCGCCAGAACUACAGAAAUGUAGUUGACGAGGAGGAGGUUUAUCGAAGUUUGGGCGGGUGCCUCUAAA | 4.18e-05 ± 1.4e-05
33 | AUAAAAGCGCCAGAACUACAGAAAUGUAGUUGACGAGGAGGAGGUUUAUCGAAUCUUCUGCGGAUGCCUCCAAA | 2.55e-05 ± 1.2e-05
34 | AUAAAAGCGCCAGAACUACAGAAAUGUAGUUGACGAGGAGGAGGUUUAUCGUAUUUACGGCGGAUGUCUCCAAA | 0.000894 ± 0.0002
35 | AUAAAAGCGCCAGAACUACAGAAAUGUAGUUGACGAGGAGGAGGUUUAUCGAGUUUUCGGUGGAUGCGUCCAAA | 4.37e-05 ± 1.2e-05
36 | AUAAAAGCGCCAGAACUACAGAAAUGUAGUUGACGAGGAGGAGGUUUAUCGGAUAUUCGGCGGAUGCCUCCAAA | 0.00185 ± 0.00032
37 | AUAAAAGCGCCAGAACUACAGAAAUGUAGUUGACGAGGAGGAGGUUUAUCUAAUUUUCCGCGGAUUCCUCCAAA | < 1e-05
